Experimental data as given in a protein production outcome set (Wang et al. 2014).

Assay: label from the status in PepcDB records
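Also: failed if final PepcDB status was selected cloned or expressed and not failed if soluble or beyond.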

Sequence | protein production
SDDNKTTGATYDPNQPVTVESFMPVEGKLREKVIVKGSNFGTDKSKVKVYFVDEAAERLSTVIGIDNNTLYCLAPRQLPGGNRIKVIVDGKEVTTDGTFKYEQAQNVSTISGSASKDGNDDGDLASAKFKYMWGIAAVGNNTVLAYQRDDPRVRLISVDDNKVTTVHPGFKGGKPAVTKDKQRVYSIGWEGTHTVYVYMKASGWAPTRIGQLGSTFSGKIGAVALDETEEWLYFVDSNKNFGRFNVKTQEVTLIKQLELSGSLGTNPGPYLIYYFVDSNFYMSDQNLSSVYKITPDGECEWFCGSATQKTVQDGLREEALFAQPNGMTVDEDGNFYIVDGFKGYCLRKLDILDGYVSTVAGQVDVASQIDGTPLEATFNYPYDICYDGEGGYWIAEAWGKAIRKYAVE | not failed
RVTVMLAAFEGWNDAGEAASDALHYLNKLWDGKKVATVDAEEYYDFQFTRPTVRRTSSGARKVKWPSTRIYKAEVPDSNVDVVLVLGTEPSYRWRAYTTELLVHAEALKVDSVILVGALLADVPHSRPIPVSTTTEDSSLRERLNLEASQYEGPVGIVGVLAEFAMLAGLPTVSLWAAVPHYVAQPPSPKAQLAILHRIEDLLQVPLDSQALAEESEAWERGVDELATEDPEITAYVRQLEEAKDTADLPE | not failed
MKTWIFICMSIAMLLWFLSTLRRKPSQKKGCIDAIIPAYNEGPCLAQSLDNLLRNPYFCRVICVNDGSTDNTEAVMAEVKRKWGDRFVAVTQKNTGKGGALMNGLNYATCDQVFLSDADTYVPPDQDGMGYMLAEIERGADAVGGIPSTALKGAGLLPHIRATVKLPMIVMKRTLQQLLGGAPFIISGACGMFRTDVLRKFGFSDRTKVEDLDLTWTLVANGYRIRQANRCIVYPQECNSPREEWRRWRRWIVGYAVCMRLHKRLLFSRFGIFSIFPMLLVVLYGVGIYLTTWFNEFITTGPHGVVLAMFPLIWVGVVCVIGAFSAWFHRCWLLVPLAPLSVVYVLLAYAIWIIYGLIAFFTGREPQRDKPTRYSALVEASTAYSQPSVTGTEKLSEA | failed
MFSFPAVLEAGIVFLYIAVALFLATLGIWIARTFLMPNVIKEDWNSLNRISFTTVIPLSASVMNAAIIAYYGFNVHYEYLYLVNYFIDFTSILFLSFFLGYKLYTKSPVHTNEISYGLLIPPVAISSNVLLGSSLMRTQYFNSIIFLTVIGVGIALFLFLFIGIMTFASYIRDQKANAPSPMLVLPVGVSSIIVINILAIATAKSVFQIPMADALTVSFMLWAFELWNFVVAMMISLKRVFREPATISIWAYTFPMAIFSVSSLDLRSIIGRYGYITASNIVYYIGIGAWVILIVAWVYAVMSTAIFLSHIKMIAYPG | failed
MRIAGIEPESIVDGPGIRFTVFTQGCPLQCPGCHNPATWDPCGGQEVDVEEVIAAMNSSVLASGLTLSGGEASRQPRACARLARAAHEMGWDVWSWSGYTVEALMRQARRDAELADMLGQIDVLVDGPFQLVHRTLTLPWRGSSNQRVIDMPATLRGGRAVEWADRAGNLR | failed
MTMTLHTKASGMALLHQIQGNELEPLNRPQLKIPLERPLGEVYLDSSKPAVYNYPEGAAYEFNAAAAANAQVYGQTGLPYGPGSEAAAFGSNGLGGFPPLNSVSPSPLMLLHPPPQLSPFLQPHGQQVPYYLENEPSGYTVREAGPPAFYRPNSDNRRQGGRERLASTNDKGSMAMESAKETRYCAVCNDYASGYHYGVWSCEGCKAFFKRSIQGHNDYMCPATNQCTIDKNRRKSCQACRLRKCYEVGMMKGGIRKDRRGGRMLKHKRQRDDGEGRGEVGSAGDMRAANLWPSPLMIKRSKKNSLALSLTADQMVSALLDAEPPILYSEYDPTRPFSEASMMGLLTNLADRELVHMINWAKRVPGFVDLTLHDQVHLLECAWLEILMIGLVWRSMEHPVKLLFAPNLLLDRNQGKCVEGMVEIFDMLLATSSRFRMMNLQGEEFVCLKSIILLNSGVYTFLSSTLKSLEEKDHIHRVLDKITDTLIHLMAKAGLTLQQQHQRLAQLLLILSHIRHMSNKGMEHLYSMKCKNVVPLYDLLLEMLDAHRLHAPTSRGGASVEETDQSHLATAGSTSSHSLQKYYITGEAEGFPATV | not failed
MGSGSMLQSWNLKTSKRTGSFDAKSSINAVAISPDGNTLATGIRDNAIKLWNINDGKLIHTLTGHQGQVRTVAFSPDGTLLASGSSDGTVKLWNATTGKEINTFTAHKEQVWSVAFNPDGKTLASTGQDGSVKIWGVSPQLEHHHHHH | not failed
MADQNRSEEKTVKSPNVFERVKEEIEAMGHHEKSKSRHHDKETHGTSDDIDESTPIDYVKGPGFFQRLKEEIEAIFNAVTPKRSSKK | failed
RSRPSPYACHVEAWAADGRQRVRMANPGHATLVLHVYDCLRLAQGPRRYTIEPGRQWEDSWPDAGADLACDLWILGPDGFHRHIRR | failed
MDEQAVSTSMKTVYIRIYTSVLYTSYTKPGNWSAVDRSAWSVSCSNVYADDDAKYGAHLAIDGEINTTWFTWGVANAGECWWNTVLDRPVTLTGFSVTKQSAYGSGYNLRSAEIKVRKEGETEWVTYPRVLTFRNFKGADPQYAAIEPPIPNVKEFRINCLTPDNYTGFAEINLYVKQLEHHHHHH | not failed
MNESVDTDEATTPLVSAIIPTYGRNERLSSAIQSVLEQTYDNIELFVVDDASPTPVRETLDSFDPTVENSFRILRHDENQGANAARNTGIRASDGRYVAFLDDDDQWDETKITKQVQAFQESDSETGVVYTGVRKDGPEGTTVSTPVASGDVMKDLLTGTNFGQFSSVMVDTTVIETAGLPDERLPAWQDREWFFRLAQHTHFRPVRETLTYRQTGLPGSITKKYEQKRDVAYPMLISKHDWVAAEYGIYYERMFKATMRRSLARSAVRADRYKEARKYFLLSALANPLYWPVYPHLFASLGGKWSYESIASLRQQVTNGPASGTLEHHHHHH | failed
MSELEEDFAKILMLKEERIKELEKRLSEKEEEIQELKRKLHKCQSVLPVPSTHIGPRTTRAQGISAEPQTYRSFHDLRQAFRKFTKSERSKDLIKEAILDNDFMKNLELSQIQEIVDCMYPVEYGKDSCIIKEGDVGSLVYVMEDGKVEVTKEGVKLCTMGPGKVFGELAILYNCTRTATVKTLVNVKLWAIDRQCFQTIMMRTGL | failed
MHVDIELPLGRATALQRLRAQGFCVLTPAALETLTGMPLDAFDMMLPYWEELAPDLHLKDGGHYRYRRHGCFMQTLQPGQLETVQHRAHWQPTTYNALHGGMERWFEPLSNEMIHLPSWSALLVALGELFAKLRAPQGGRWYIEAHPFRIDTEGGVGRPTPEGAHRDGVDFVAVVFIGRQGVRGGETRVFDAAGPQGVRFTLEQPWTVLLLDDQQVIHESTPLLPLDPADPAVPAHRDTLVLTYRSGGFQAPA | not failed
MPGSALLSLQQELRRGFEALKAAKDTFDGGHAECQELVSSLGNLAPQLKALKQVQISETPLSGFPCLQQRLHYKLSLAVDALLAKLAEKMAALQKVWDAFAQQVFTVVQLYEKNTDALDISVCVSRSAVCPSVSDMLEWLQDADRYYRLQLMQSRLLLQTLTPTDLTSMETAPNRWRSVRSARQEERIADALCQVSIFLETE | failed
MPCPPNVSMMLGKEGPAADSERVTLWRDHHLSHTHAVLWTVILVATVGDILLTMTGLTVGLQEGNAVVSTMLAEFGLAGLWLVKFGAMLWLVAGWRLLSERNATVFLALFAVVTLAVVAYNSVTILQYRGVITAVAGI | failed
MGLSVGIVGLPNVGKSSTFNALTKTQNAQSANYPFCTIEPNKAIVNVPDRRLDALAQIVKPERILHSVVEFVDIAGLIKGASKGEGLGNQFLANIKECEVILQVVRCFEDDNITHVNDKIDPLNDIETIELELILADIAALDKRIDRLQKALKSSKDAKNLLECALSLKTHLEELKPAKTFPLNTSEAFLELDKELRFLSHKKMIYVANVGEEDLNALNEHAKKVKNHAKEQNSEFVALCAKLEEEMVSMSGDEVKEFLQSLGVEESGLEKTIRLSFKELGLINYFTAGVKEVRSWTIKKGSSAPVAAGVIHKDFEKGFIRAETISYDDFIAYKGEAGAKEKGALRIEGKDYIVQDGDVLHFRFNI | failed
AQIPQQIKGVICINAGGGIYLKEAFEQFRVAGQRFLQVRPRWLSQVPLIDLLFTRASVSRPLDRQWARQRVIDFVVADPEAALGALLDSTTEDEVNRLPKLVSQLKQPVYFLAGTDDKVMEPKYVRHLASFHPLFQYCGDNVIEIPDCGHLAMLEQPDAVASHIKSLV | failed
MKPTLFVLAAGMGSRYGSLKQLDGIGPGGDTIMDYSVYDAIRAGFGRLVFVIRHSFEKEFREKILTKYEGRIPVELVFQELDRLPEGFSCPEGREKPWGTNHAVLMGRDAIREPFAVINADDFYGRNGFEVLARKLMTLEGKQGEYCMVGYRVGNTLSESGGVSRGVCQVDEKHLLTGVVERTGIERTDGTISFRDETGKICTLAEDAPVSMNMWGFTPDYFDYSEELFINFLNAHGQEPKSEFFIPFVVNDLIRSGRASVEVLDTTARWFGVTYSDDRPGVVAKLRELTEAGEYPTKLFLEHHHHHH | not failed
MKNHLITVLVCCLFFIGCKDDKANSNQYDPSQPVVFTDFSPKEGGMRTRLYIEGSNFGNDPTKIHITIGGEKTKTIGADGKKIYCMVPSKAFDGIINVRVDGPDGKPIAEHTFEEEFKYTPATIVGTLLRKVDEDNNSAFQEGSFDEGASIPSNDCMVFDPKYKDGDNRLLFSSNHSDGLHLIDLTERTVKRLFPRTGYSTMYSFTFSADGDTLLFTDDHGQDNTTRANIYYSLRRENFRRIRPYNYGRTAYSLVYMDDGTIFYTTWWEGKVYKMIRNGAIPNIDENAEVAFSLSQISAVGGSHTILFRHPSNKFMYMLSDNFGAVFRADYDPVAKTFGNPSIIAGNMNDKSFKEGTGGSARFNKPQFGVFVKNEKYGEGIGPDNDQYDFYFCDRENHCIWKLDPHGVASLAAGRSNENADGKIWGYVDGNPLHEARFNQPAGLAYDPDTDMFYIGDIDNKGIRYMTTE | failed
MKTVLAFGDSLTWGADPATGLRHPVEHRWPDVLEAELAGKAKVHPEGLGGRTTCYDDHAGPACRNGARALEVALSCHMPLDLVIIMLGTNDIKPVHGGRAEAAVSGMRRLAQIVETFIYKPREAVPKLLIVAPPPCVAGPGGEPAGGRDIEQS | not failed
MRRFALTVALPKGRMFREAYEVLKRAGLDLPEVEGERTLLHGKEGGVALLELRNKDVPIYVDLGIAEIGVVGKDVLLDSGRDLFEPVDLGFGACRLSLIRRPGDTGPIRRVATKYPNFTARLLKERGWAADVVELSGNIELAAVTGLADAVVDVVQTGATLRAAGLVEVEVLAHSTARLVVNRQALKLKRAVLKPLIQRLRELSGS | not failed
MSRRYWQLDVFAERPLTGNGLAVFDDASALDDAAMQAWTRELRQFESIFLLPGDDPRAFRARIFTLEEELPFAGHPLLGAAALLHHLRGGDNEQHWTLHLASKSVALRSVRAGSGFYAEMDQGRAEFGATPDAGTCRWFAEAFSLSANDLSGHPPRVVSTGLPYLLLPVTAEALGRARQVNDLQEALDKLGAAFVYLLDVDGREGRTWDNLGLVEDVATGSAAGPVAAYLVEYGLAARGEPFVLHQGRFLERPSRLDVQVATDGSVRVGGHVQLLARAELLTSA | not failed
MTPQIATILGLVIMFIVATALPINMGAVAFALAFIIGGVWVGLEGKEVLAGFPGDLFLTLVGITYLFAIAQKNGTIDLLVHWAVRAVRGRIVAIPWVMFVITGLLTAFGALGPAAVAIIGPVALRFAKQYRINPLMMGLLVIHGAQGGGFSPISVYGGITNKVVEKAGLDVSEMAVFLTSLGFNLMMAIICFCAFGGLKLMRRQELSLADAQYVAVAGDQASHRGFAIEGHGALVAPGGGTLSTDPLALEAVSITRDRVITLIGLLGLGVAALIYNLNVGLVSITVAVALALISPNAQKGAVDGISWSTVLLISGVVTYIAVLEKSGAVDYIGTGVSHIGMPLLGALLVCYVGGIVSAFASSAAVLGATIPLAVPFLMQGQLGAAGVICALAVSSTIVDVSPFSTNGALVVASAAKEERDGLFRRFLIYSGLVVLLGPLAAWLVFVVPGWL | failed
ILVKNLPQDSNCQEVHDLLKDYDLKYCYVDRNKRTAFVTLLNGEQAQNAIQMFHQYSFRGKDLIVQLQPTDALLC | not failed
